Assays:
[1] = biological target: TSP4-N181 (AD-XD1 of TSP4) (bacteriophage CBA120) (UniProt G3M192); assay: AUC; sedimentation velocity of single proteins and of mixtures, PBS pH 7.4, 20 °C, absorbance at 280 nm, 30-50 krpm; c(s) by SEDFIT; Kd and koff by Lamm equation modelling with a two-site heterogeneous association model A + B + B = AB + B = ABB (A: TSP4-N335 hexamer, B: partner TSP trimer; two symmetric sites, no cooperativity)
[2] = biological target: TSP4 devoid of the AD-XD1 domains, residues 185-1036 (bacteriophage CBA120) (UniProt G3M192); assay: as above
[3] = biological target: TSP4-N253 (AD-XD1-XD2 of TSP4, lacking XD3) (bacteriophage CBA120) (UniProt G3M192); assay: as above
[4] = biological target: TSP4-N335, the 335 N-terminal residues of tailspike protein 4 of bacteriophage CBA120 (AD-XD1-XD2-XD3) (bacteriophage CBA120) (UniProt G3M192); assay: as above
[5] = biological target: TSP4-N490 (AD-XD1-XD2-XD3 region followed by the D1-D2 head region of TSP4) (bacteriophage CBA120) (UniProt G3M192); assay: as above
[6] = biological target: TSP4-N335, the 335 N-terminal residues of tailspike protein 4 of bacteriophage CBA120 (AD-XD1-XD2-XD3) (bacteriophage CBA120) (UniProt G3M192); assay: as above; remark: listed apart in the source
[7] = biological target: the molecule itself; assay: as above
[8] = biological target: TSP4-N335, the 335 N-terminal residues of tailspike protein 4 of bacteriophage CBA120 (AD-XD1-XD2-XD3) (bacteriophage CBA120) (UniProt G3M192); assay: AUC; sedimentation equilibrium, PBS, 20 °C, 3 or 4 speeds (3000-12,000 rpm); global fit with SEDPHAT; for mixtures the two-site model A + B + B = AB + B = ABB
[9] = biological target: TSP4-N181 (AD-XD1 of TSP4) (bacteriophage CBA120) (UniProt G3M192); assay: AUC; sedimentation velocity of single proteins and of mixtures, PBS pH 7.4, 20 °C, absorbance at 280 nm, 30-50 krpm; c(s) by SEDFIT; Kd and koff by Lamm equation modelling with a two-site heterogeneous association model A + B + B = AB + B = ABB (A: TSP4-N335 hexamer, B: partner TSP trimer; two symmetric sites, no cooperativity); remark: listed apart in the source
[10] = biological target: TSP4-N490 (AD-XD1-XD2-XD3 region followed by the D1-D2 head region of TSP4) (bacteriophage CBA120) (UniProt G3M192); assay: as above; remark: listed apart in the source
[11] = biological target: the molecule itself; assay: AUC; sedimentation velocity in 50 mM TRIS pH 8.0 or HEPES pH 7.3, 150 mM NaCl, 0.1-0.5 mM Zn2+ (100 μM ZnCl2 in the legend)
[12] = biological target: TSP4-N335, the 335 N-terminal residues of tailspike protein 4 of bacteriophage CBA120 (AD-XD1-XD2-XD3) (bacteriophage CBA120) (UniProt G3M192); assay: as above

## TSP4-N181 (AD-XD1 of TSP4) (from UniProt G3M192 1-181) (domain or fragment)
[1]
  stoichiometry N: 6

## TSP4 devoid of the AD-XD1 domains, residues 185-1036 (from UniProt G3M192 185-1036) (domain or fragment)
[2]
  stoichiometry N: 3

## TSP4-N253 (AD-XD1-XD2 of TSP4, lacking XD3) (from UniProt G3M192 1-253) (domain or fragment)
[3]
  stoichiometry N: 6

## TSP4-N335, the 335 N-terminal residues of tailspike protein 4 of bacteriophage CBA120 (AD-XD1-XD2-XD3) (from UniProt G3M192 1-335) (domain or fragment)
[4]; mixed monomer and hexamer sample
  stoichiometry N: 3
[4]; purified single-species sample
  stoichiometry N: 6

## TSP4-N490 (AD-XD1-XD2-XD3 region followed by the D1-D2 head region of TSP4) (from UniProt G3M192 1-490) (domain or fragment)
[5]
  stoichiometry N: 6

B1: Tailspike protein 1 of bacteriophage CBA120 (natural protein)
chain: MNEMFSQGGKGSTGILTNKQAVARHFGVKQSEVVYFSVGVDLGGYKVIYDKETQRAYSLPVGIASGTTAVSLSTAAVLVHSAGSVDLGSLAVSREEYVTLPGSFDSGSTLNVKNELLTYTDGKYRWDGILPKTVAPGSTPASTGGVGLGAWISVGDASLRTQLANGDGSLIGIHPQGTLNNVLTVRTPEQYNAVGDGIADDTSKLKEMLSDINNVPETLPDAAAVNSYMEQVAVKIDLTKLYRFTETLYIPPGVSIEIPTSNFFTRECKQGLFYDPVDKNTAAISLMVYRKQPDGSYKLNKDVDYYPTGLDIDNGDAITCARKIDINNLNLITAPGVKVGVKWIGGAGCTTKGLSIGENTGSDITTARLPRVGLLQSASWGSIHENLRILYKTQGAVFIDSNGGAAVNNAYISRLGNTNGELEQAVYKPAGFTEVGDVAVTQFAGSEVKFNSPIIEQASFDFVHAGRDTDSYGLFMVDKPHIESSGGKKKHSFYLINTSSNVTLSGVGLSGQDPDLDSMYFLKNCPETARNVVRGQMPISGVKLVRGTGNYPTLVLDCTNMGSQFQFGEVGDIFYIKDVVGVKADTLYIDPVNGNNYNWGTNGTKPIRELTNIAKICQLFRCKSVYLNAGESVITSNTELPMVVFEGPGSLKANSGSSFLIKAGGTLSLIGLSGISTDGGHMFRVSTVEKVNIHTNCSVNAGAAYVVLSEVQGNIEYRQLFYSVNCSKYIGATAGQTIAGIMVKTATRPTGIDAAPVDGNVSLTYKIIES
notes: Homotrimer by SV (MWcalc of the trimer 248 kDa); also called TSP1
[6]
  Kd: 60 nM
  koff: 0.0001 s⁻¹
[6]; one trimer bound per hexamer
  stoichiometry N (TSP1:TSP4-N335 (chains)): 0.5
[6]; two trimers bound per hexamer
  stoichiometry N (TSP1:TSP4-N335 (chains)): 1
[7]
  stoichiometry N: 3
[8]
  Kd: 80 nM

B2: Tailspike protein 2 of bacteriophage CBA120 (natural protein, UniProt G3M190 1-921, looked up)
chain: MTRNVEELFGGVITAPHQIPFTYKSNVGGETFLSLPFYPVTGVVTINGGMQVPLDNFEIEGNTLNLGRALSKGDVVYCLFDKILSPEDTAKGIRIYKFQAVGGETEFTPDFTSYGVQSLYIGGEYKTPEIEYSYDSTTGKVSLQTALSAGVWVVAEMSVKQPNISPAFDRSIQEIARSANVKDSEVIVSTDTISLLDGKKVVYDIATQTSYGLPTIPDGSVISSVSAGKLNYNPGDVQVDLLPLEDSFINVINTLGRNDGAKYIGECHSVADLRNTEPTMDGQRIILKQHTAGTLLGGGVFRALIDGTGKTDNNGTVIKTVGGAAWLRVNADRVNPFMFGALGGSNDDTIPVQSCVDSGKATQLTDAHYVSNIQLKYNTSSIYGSGLHYSRLHQLPSATGNCITIKDTCSLIVLDAFGVYGTGAQQGTSFTAGTTGIYVETPSGLSADYPFHTTADPRRDLCISKVHIAGFDEYGLNIDSGNFSVTTDSLLVNHINQVGVRCATTDWTWTNIQVNTCGKQCLVLDGCGNGRIIGGKFIWANWQPYGTVGQFPGITINNSQNMVINGIEVQDCGGNGIEISESYSISMNGLNTNRNGINANNTFYNIVFNKSDAVINGFVGLNYAANSGSGANSSAGNFQFLSNDCSVTINGVVETGYMGINFIGDNNIINPTNSDLSINGLVNYSKTGLQTMNETPTFDGVSTTPVYVSVPSSVGQVNGLRLSQANKDKLLYSRTAGPEGITMAAVIVPTISGAEVFNFMAIGSGFSDTSNSLHLQLVIDASGKQTIALLLGGDGTTQILSGDLPNDLKLQSGVPYHIAIGAKPGYFWWSILNIQTGKRIRRSFRGAYLAVPFNSIFGLTSSLTFFSDSNAGGDACSGVGAKVYVGMFSSENDYVASRYYNLINPVDPTKLISYRILDSSI
notes: Homotrimer by SV (MWcalc of the trimer 297 kDa); also called TSP2
[6]
  Kd: 110 nM
  koff: 0.00025 s⁻¹
[9]; one trimer bound per hexamer
  stoichiometry N (TSP2:TSP4-N181 (chains)): 0.5
[9]; two trimers bound per hexamer
  stoichiometry N (TSP2:TSP4-N181 (chains)): 1
[10]; one trimer bound per hexamer
  stoichiometry N (TSP2:TSP4-N490 (chains)): 0.5
[10]; two trimers bound per hexamer
  stoichiometry N (TSP2:TSP4-N490 (chains)): 1
[7]
  stoichiometry N: 3
[8]
  Kd: 75 nM

B3: TSP1 head, residues 14-166 (D1-D2 domains and the alpha-helical neck, without the 13 N-terminal amino acids) (domain or fragment, bacteriophage CBA120, UniProt G3M189 14-166, looked up)
chain: GILTNKQAVARHFGVKQSEVVYFSVGVDLGGYKVIYDKETQRAYSLPVGIASGTTAVSLSTAAVLVHSAGSVDLGSLAVSREEYVTLPGSFDSGSTLNVKNELLTYTDGKYRWDGILPKTVAPGSTPASTGGVGLGAWISVGDASLRTQLANG
notes: TSP1 of phage CBA120, D1-D2 head and neck, residues 14-166; Trimerisation was promoted by Zn2+; also called TSP1_(14-166); TSP1-N_(14-166)
[11]
  stoichiometry N: 3
[12]; one trimer bound per hexamer
  stoichiometry N (TSP1 (14-166):TSP4-N335 (chains)): 0.5
[12]; two trimers bound per hexamer
  stoichiometry N (TSP1 (14-166):TSP4-N335 (chains)): 1
